From the supplement of paper PMC10567573

B1: FCHO1 (parent)
chain: HLELTRKLQDLIKDVLRYGEEQLK

Variants of: B1
Test: protein stability index of a GFP-peptide fusion (GPS, HEK-293T) (PSI 1-6); higher = more stable
Details: c terminus: a fixed tail appended
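Further: lentivirally expressed fusions sorted by FACS into six bins by GFP to DsRed ratio, PSI derived from sequencing read proportions per bin multiplied by bin number.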

Protein stability index of substitutions, site by site:
Q9: Y 3.31, W 2.68, V 2.56, L 2.26, A 2.81, D 1.24, P 2.81, F 2.25, M 3.55, I 1.22, H 1.65, K 3.73, G 1.31
L8: V 1.97, P 2.71, G 2.46, A 1.94, D 4.04, W 1.36, Y 1.64, N 3.85, M 1.45, H 2.71, Q 3.3, C 3.07, R 3.39, I 4.57, K 2.74, F 2.29, E 3.62, S 3.28, T 2.39
D10: C 3.93, V 4.56, N 2.62, P 1.99, E 3.03, G 3.66, W 2.82, Y 4.45, L 1.44, I 3.93, R 2.58, A 3.54, K 2.72
R6: K 2.69, S 2.4, E 1.85, H 3.21, C 2.25, Y 1.9, N 1.61, M 1.46, V 1.69, A 1.45, I 1.95, W 2.34, G 2.11, F 1.9, D 1.84, T 1.92, Q 1.86, P 1.79, L 1.29
L4: S 2.76, K 1.43, Y 2.41, M 2.21, T 1.55, W 3.23, Q 2.58, V 3.17, P 1.58, N 1.75
K13: F 1.59, M 2.22, Q 1.59, L 4.09, T 1.67, S 2, W 2.16, N 1.9, I 4.84, V 2.29, Y 1.33, C 2.28, A 2.14, E 2.37, D 2.06, H 1.8, G 1.78, R 2.3, P 2.63
T5: M 3.28, W 2.05, E 1.88, D 2.53, Y 3.13, P 1.94, F 2.34, N 2.14, Q 3.54, H 3.29, G 2.48, C 2.55, V 2.63, L 3.42, I 2.38, S 3.79, A 1.89, K 5.01
L11: D 4.29, F 3.54, N 2.56, T 1.63, C 1.67, E 4.22, G 2.38, R 1.2, K 2.38, Q 2.47, S 2.67, I 3.17, P 4.34, H 2.51, A 2.5, Y 1.09, M 3.68
D14: C 3.08, A 2.45
K7: S 2.75, P 1.51, A 2.33, V 1.74, W 1.87, R 2.78, Q 2.28, T 2.96, L 3.41, E 2.28, C 1.55, Y 1.78, M 3.46, D 2.27, F 2.12, H 1.99, I 2.06, G 2.68, N 2.03
I12: A 2.27, E 3.82, S 2.51, D 4.11, Y 2.34, P 3.65, T 2.31, C 1.73, Q 3.4, R 3.39, F 2.57, W 1.89, N 4.18, H 3.05, K 3.17, M 2.25, L 1.77, G 2.88
